Among the data in the Immune Epitope Database (IEDB) are Kd and IC50 values, retold here.

The target in assay [1] is HLA-A*03:01. Put plainly: IEDB peptide-MHC binding, purified MHC/competitive/radioactivity; filed as Kd, often an IC50 or EC50 that approximates it; ≥ and ≤ were set here for values at or beyond the usual limits of such assays. Conditions: source organism: Homo sapiens.
The target of assay [2] is HLA-B*07:02. The description is as above. Conditions: source organism: Homo sapiens.
The next assay has as its target HLA-A*01:01. The description is as above.
Assay [3] deals with HLA-A*03:01. Kind of assay: IEDB peptide-MHC binding, purified MHC/competitive/radioactivity; ≥ and ≤ were set here for values at or beyond the usual limits of such assays. Conditions: source organism: Homo sapiens.
For assay [4], the target named is HLA-B*07:02. The assay is described as above. Conditions: source organism: Homo sapiens.
A further assay concerns the target HLA-A*02:01. Described as above. Conditions: source organism: Homo sapiens.

As to EADPTGHSY, the Kd with HLA-A*03:01 [1] and with HLA-B*07:02 [2] was not below 5 µM each time.

Take FLPSDFFPSV: in the assay with HLA-A*01:01 (source organism: Hepatitis B virus subtype adyw), the Kd is not below 5 µM.

For LLDVPTAAV, the Kd with HLA-A*01:01 (source organism: Homo sapiens) was 4.31 µM; in the assay with HLA-A*03:01 [1] it was not below 5 µM; with HLA-B*07:02 [2], not below 5 µM.

With RVMAPRALL, the IC50 with HLA-A*03:01 [3] was 905 nM; with HLA-B*07:02 [4], 4.6 nM. In addition, in the assay with HLA-A*01:01 (source organism: Homo sapiens), the Kd was not below 5 µM.

Turning to SLLPAIVEL, the IC50 with HLA-A*02:01 was determined as 24 nM. The equilibrium dissociation constant (Kd) in the assay with HLA-A*01:01 (source organism: Homo sapiens), with HLA-A*03:01 [1] and with HLA-B*07:02 [2] was not below 5 µM throughout.

As for YLLPAIVHI, the Kd with HLA-A*01:01 (source organism: Homo sapiens), in the assay with HLA-A*03:01 [1] and with HLA-B*07:02 [2] was not below 5 µM each time.

As a reminder, the Kd is the equilibrium constant for the complex coming apart. In general, IC50 refers to the concentration needed to halve the response being measured.
